Test results taken from patent publication US20220008545A1 (Bicycle, published 2022).
Starred links: 1 amine or outer side, 2 acyl side, 3 side chain; linkers in the order of their positions; H or OH if unused. Positions of bridges follow the written chain, without caps; N, C: chain ends. No end group written: not given here. TBMB = c1c(C[*:1])cc(C[*:3])cc1C[*:2]

T1: fibroblast activation protein α (FAPα) (UniProt Q12884 26-760, limits assumed)
T1 sequence (looked up): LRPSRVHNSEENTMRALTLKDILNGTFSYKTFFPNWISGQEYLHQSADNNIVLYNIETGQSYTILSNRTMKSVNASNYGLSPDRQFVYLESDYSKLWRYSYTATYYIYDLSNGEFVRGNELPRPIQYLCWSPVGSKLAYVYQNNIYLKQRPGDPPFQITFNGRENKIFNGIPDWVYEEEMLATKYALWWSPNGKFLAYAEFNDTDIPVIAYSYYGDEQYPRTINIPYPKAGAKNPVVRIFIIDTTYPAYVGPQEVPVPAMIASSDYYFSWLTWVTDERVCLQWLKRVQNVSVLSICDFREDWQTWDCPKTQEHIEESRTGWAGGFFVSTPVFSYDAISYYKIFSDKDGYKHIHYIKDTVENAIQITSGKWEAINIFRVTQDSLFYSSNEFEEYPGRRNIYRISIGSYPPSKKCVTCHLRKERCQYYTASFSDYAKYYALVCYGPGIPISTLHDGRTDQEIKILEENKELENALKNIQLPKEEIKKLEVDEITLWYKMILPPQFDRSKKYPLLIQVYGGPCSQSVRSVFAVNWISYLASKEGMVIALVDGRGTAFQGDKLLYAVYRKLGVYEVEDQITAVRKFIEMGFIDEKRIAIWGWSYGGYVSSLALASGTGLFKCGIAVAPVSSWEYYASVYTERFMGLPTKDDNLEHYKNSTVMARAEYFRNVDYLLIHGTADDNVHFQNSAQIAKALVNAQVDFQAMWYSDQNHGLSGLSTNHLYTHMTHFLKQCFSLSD


Assays:
[1] = biological target: T1, fibroblast activation protein α (FAPα); test: cell-based or functional assay
[2] = biological target: T1, fibroblast activation protein α (FAPα); test: fluorescence polarization FAPα binding assay
Procedure: FAPα binding was measured using the fluorescence polarization assay methodology described in Yanagisawa et al (1997) J Biol Chem 272(13), 8539-8545. FAPα enzyme inhibition was measured using the assay methodology described in Poplawski et al (2013) J Med Chem 56(9), 3467-3477.

FAPα Enzyme Inhibition IC50 [1] [nM] | Ki [2] [nM] | Binder
16700 | 1720 | ACDDCLISMRDACA (linker 2-5-13 via TBMB, all L-amino acids) [A-(SEQ ID NO: 4)-A]
1330 | 113 | ACHSDYLICPYGDFFCA (linker 2-9-16 via TBMB, all L-amino acids; also called CiHSDYLICiiPYGDFFCiii with N- and C-terminal Ala) [A-(SEQ ID NO: 1)-A]
> 50000 | 4520 | ACTDCDTDSLIYCA (linker 2-5-13 via TBMB, all L-amino acids) [A-(SEQ ID NO: 2)-A]
5760 | 578 | ACPPTEYDCLIFFSECA (linker 2-9-16 via TBMB, all L-amino acids; also called CiPPTEYDCiiLIFFSECiii with N- and C-terminal Ala) [A-(SEQ ID NO: 3)-A]
